The text below walks through data of doi:10.1101/2020.11.23.394106 (bioRxiv, 2020).

For assay [1], the target named is T1, merlin FERM domain (22-312), GST tag cleaved (human, UniProt P35240 22-312).
T1 sequence: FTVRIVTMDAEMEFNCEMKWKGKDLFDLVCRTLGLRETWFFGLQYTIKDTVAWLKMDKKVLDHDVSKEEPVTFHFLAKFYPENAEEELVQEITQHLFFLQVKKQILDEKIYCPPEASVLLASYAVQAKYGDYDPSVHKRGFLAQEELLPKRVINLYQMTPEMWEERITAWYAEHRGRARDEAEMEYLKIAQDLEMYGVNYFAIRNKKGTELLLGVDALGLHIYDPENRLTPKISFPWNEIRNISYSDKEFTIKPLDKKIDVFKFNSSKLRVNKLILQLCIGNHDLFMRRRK
As to the kind of experiment: fluorescence polarisation.

Assay [2] deals with moesin FERM domain, GST tag cleaved (UniProt P26038 2-295). Nature of the assay: fluorescence polarisation.
Sequence of moesin FERM domain, GST tag cleaved (P26038 2-295): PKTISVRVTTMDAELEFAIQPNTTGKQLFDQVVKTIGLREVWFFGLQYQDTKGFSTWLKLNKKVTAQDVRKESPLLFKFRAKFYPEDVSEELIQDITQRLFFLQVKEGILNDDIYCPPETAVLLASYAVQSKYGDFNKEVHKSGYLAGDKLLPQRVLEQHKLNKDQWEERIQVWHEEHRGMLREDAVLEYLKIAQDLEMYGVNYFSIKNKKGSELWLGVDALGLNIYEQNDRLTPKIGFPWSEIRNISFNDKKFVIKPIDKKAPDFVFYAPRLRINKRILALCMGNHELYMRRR

Where no end group is shown, it is not given here.

Take LEFADFYDFRSSYPDH (also: FITC label, site not given here) [FITC-labeled ZNF622_(341-356)]: in assay [1], the binding result is given as “binds”.
Turning to AEPLPSLEYWPQKSDR (also: FITC label (position not given here)) [FITC-labeled FAM83G_(111-126)], the Kd in assay [1] came to 93000 nM.
Consider YYSVNTFKEHHSTPTI [KIRREL3_(637-652), unlabeled peptide], for which, in assay [2], the Kd worked out at 90 nM.
On to FYDLWASDNPLDRPLV (also: FITC label, site not given here) [FITC-labeled NOP53_(192-207)], for which, in assay [1], the binding result is recorded as “binds”.
In the case of TNGYYSVNTFKEHHSTPTI [KIRREL3 peptide with N-terminal extension of three amino acids (634-652), unlabeled], binding in assay [2] was put at a Kd of 120 nM.
